Source: patent US20220195041A1 (IMMUNORIZON, published 2022)
Positions count from the first letter of the chain named.

Tests used:
[1] = molecular target: T1, hEGFR-Fc (EGFR extracellular fusion antigen, Cat #344-ER-050, Bio-techne) (human, UniProt P00533 25-645); experiment: ELISA, coated hEGFR-Fc (FIG. 18A)
T1 construct: extracellular domain; Bought reagent; also called human EGFR antigen; extracellular domain of hEGFR; not shown: Fc part of the bought fusion
Protocol: (§1) The EGFR antigens hEGFR-Fc (Cat #344-ER-050, Bio-techne) and rhesus EGFR-Fc (Cat #EGR-05252, Acro Biosystems)) were diluted to a 0.05 ug/ml concentration in PBS. Human CD3epsilon (hCD3epsilon-His (Cat #10977-H08S, Sino Biological) and cynomolgus CD3epsilon (Cat #CDE-05226, Acro Biosystems)) were diluted to a 0.01 ug/ml concentration in PBS. ELISA plate (Cat #9018, Corning) wells were filled with 100 ul of antigen suspension. Plates were incubated overnight at 4° C. Wells were blocked with 250 ul 1% BSA in PBST for 1 hr at 37° C. and then washed four times with PBST. All washes were done using Biotek (Elx 405). All construct antibodies were diluted to 15 ug/ml and prepared with 3-fold serial dilutions (12 points, including 0 ug/ml). 100 ul/well of diluted antibody construct solution was added to plate and incubated for 1 hr at 37° C. Plates were washed four times with PBST, then 100 ul/well of anti-human kappa light chain-HRP antibody (1:10000) was added and incubated for 0.5 hr at 37° C. Wells were washed 4 times with PBST, then 100 ul/well of TMB substrate was added and plates were incubated at RT for 5 min. 100 ul/well of 1.0 N HCl was added to terminate the reaction. Plates were read using ELISA plate reader at 450 nm wavelength (SpectraMax M5e). Data Analysis was performed using Graphpad Prism 5 software by using nonlinear regression (curve fit): log (agonist) vs. response, agonist is antibody concentration (nM) and response is OD value.

[2] = molecular target: T2, rhesus EGFR-Fc (rhesus EGFR extracellular fusion antigen, Cat #EGR-05252, Acro Biosystems) (rhesus, UniProt P55245 25-645); experiment: ELISA, coated rhesus EGFR-Fc (FIG. 18B)
T2 construct: extracellular domain; Bought reagent; also called rhesus EGFR antigen; extracellular domain of rhesus EGFR; not shown: Fc part of the bought fusion
Protocol: as §1

[3] = molecular target: T3, cyno CD3epsilon-His (cynomolgus CD3epsilon extracellular fusion antigen, Cat #CDE-05226, Acro Biosystems) (cynomolgus, UniProt Q95LI5 22-117); experiment: ELISA, coated cyno CD3epsilon-His (FIG. 19B)
T3 construct: extracellular domain; Bought reagent; also called cyno CD3e antigen; not shown: His tag
T3 sequence (looked up): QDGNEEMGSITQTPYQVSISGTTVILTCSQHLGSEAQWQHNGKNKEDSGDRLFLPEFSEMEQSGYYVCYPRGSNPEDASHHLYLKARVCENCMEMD
Protocol: as §1

[4] = molecular target: T4, human CD3epsilon-His (human CD3epsilon extracellular fusion antigen, Cat #10977-H08S, Sino Biological) (human, UniProt P07766 22-126); experiment: ELISA, coated human CD3epsilon-His (FIG. 19A)
T4 construct: Bought reagent; also called hCD3epsilon-His; hCD3epsilon; not shown: His tag
Protocol: as §1

[5] = molecular target: T5, human CD3epsilon on Jurkat cells (human, UniProt P07766 22-207); experiment: FACS on Jurkat cells (FIG. 25)
T5 construct: Endogenous CD3epsilon on Jurkat T cells, within the CD3/TCR complex; also called Jurkat Cells (Human CD3e); human-CD3e expressing Jurkat cells

Measured: binding result

B1: Construct 4: Precursor Tri-Specific Construct Variable Heavy Variable Light (VHVL), anti-CD3epsilon Fab, two anti-EGFR scFv, HSA and CAP regulatory domains … (bispecific antibody)
heavy: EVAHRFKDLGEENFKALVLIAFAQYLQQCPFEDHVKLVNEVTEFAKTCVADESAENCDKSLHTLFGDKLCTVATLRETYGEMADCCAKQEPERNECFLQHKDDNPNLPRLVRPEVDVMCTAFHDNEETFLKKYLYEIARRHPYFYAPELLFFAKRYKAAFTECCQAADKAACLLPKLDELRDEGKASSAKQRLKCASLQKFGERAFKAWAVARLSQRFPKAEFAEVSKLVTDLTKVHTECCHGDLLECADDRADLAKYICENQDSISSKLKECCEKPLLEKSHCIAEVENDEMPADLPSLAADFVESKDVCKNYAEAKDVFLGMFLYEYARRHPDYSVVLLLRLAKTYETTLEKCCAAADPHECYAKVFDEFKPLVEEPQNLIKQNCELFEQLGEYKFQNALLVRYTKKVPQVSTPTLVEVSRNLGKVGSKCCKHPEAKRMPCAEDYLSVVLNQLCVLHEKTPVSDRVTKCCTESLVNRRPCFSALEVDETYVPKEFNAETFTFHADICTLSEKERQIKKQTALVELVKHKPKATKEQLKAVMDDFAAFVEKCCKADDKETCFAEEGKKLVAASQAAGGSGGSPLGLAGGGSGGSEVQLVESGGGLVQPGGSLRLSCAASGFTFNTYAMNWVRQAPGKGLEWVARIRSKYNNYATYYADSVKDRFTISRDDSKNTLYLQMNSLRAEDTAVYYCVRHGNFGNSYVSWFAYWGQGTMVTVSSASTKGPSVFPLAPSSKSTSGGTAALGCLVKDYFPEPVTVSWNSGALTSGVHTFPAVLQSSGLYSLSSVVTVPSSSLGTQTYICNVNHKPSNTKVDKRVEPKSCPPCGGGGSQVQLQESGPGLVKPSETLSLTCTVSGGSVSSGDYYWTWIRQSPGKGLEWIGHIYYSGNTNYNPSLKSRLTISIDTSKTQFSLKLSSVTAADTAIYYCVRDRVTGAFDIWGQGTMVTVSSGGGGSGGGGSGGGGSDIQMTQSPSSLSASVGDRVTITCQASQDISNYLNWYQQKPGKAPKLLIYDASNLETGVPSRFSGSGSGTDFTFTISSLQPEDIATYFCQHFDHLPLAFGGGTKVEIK
light: QDGNEEMGGITQTPYKVSISGTTVILTGGSGGSPLGLAGGGSGGSQAVVTQEPSLTVSPGGTVTLTCRSSTGAVTTSNYANWVQQKPGQAPRGLIGGTNKRAPGTPARFSGSLLGGKAALTLSGVQPEDEAEYYCALWYSNLWVFGGGTKLTVLGQPKAAPSVTLFPPSSEELQANKATLVCLISDFYPGAVTVAWKADSSPVKAGVETTTPSKQSNNKYAASSYLSLTPEQWKSHRSYSCQVTHEGSTVEKTVAPTECPPCSGGGSQVQLQESGPGLVKPSETLSLTCTVSGGSVSSGDYYWTWIRQSPGKGLEWIGHIYYSGNTNYNPSLKSRLTISIDTSKTQFSLKLSSVTAADTAIYYCVRDRVTGAFDIWGQGTMVTVSSGGGGSGGGGSGGGGSDIQMTQSPSSLSASVGDRVTITCQASQDISNYLNWYQQKPGKAPKLLIYDASNLETGVPSRFSGSGSGTDFTFTISSLQPEDIATYFCQHFDHLPLAFGGGTKVEIK
notes: Uncleaved precursor (no MMP9 treatment); also called ProTriBody-C (VHVL); Pro-Tribody-C (VHVL)
binds: [1] | [2]

B2: Construct 6: Precursor Tri-Specific Non-Cleavable (NC) Variable Heavy Variable Light (VHVL), anti-CD3epsilon Fab, two anti-EGFR scFv, HSA and CAP regulatory … (bispecific antibody)
heavy: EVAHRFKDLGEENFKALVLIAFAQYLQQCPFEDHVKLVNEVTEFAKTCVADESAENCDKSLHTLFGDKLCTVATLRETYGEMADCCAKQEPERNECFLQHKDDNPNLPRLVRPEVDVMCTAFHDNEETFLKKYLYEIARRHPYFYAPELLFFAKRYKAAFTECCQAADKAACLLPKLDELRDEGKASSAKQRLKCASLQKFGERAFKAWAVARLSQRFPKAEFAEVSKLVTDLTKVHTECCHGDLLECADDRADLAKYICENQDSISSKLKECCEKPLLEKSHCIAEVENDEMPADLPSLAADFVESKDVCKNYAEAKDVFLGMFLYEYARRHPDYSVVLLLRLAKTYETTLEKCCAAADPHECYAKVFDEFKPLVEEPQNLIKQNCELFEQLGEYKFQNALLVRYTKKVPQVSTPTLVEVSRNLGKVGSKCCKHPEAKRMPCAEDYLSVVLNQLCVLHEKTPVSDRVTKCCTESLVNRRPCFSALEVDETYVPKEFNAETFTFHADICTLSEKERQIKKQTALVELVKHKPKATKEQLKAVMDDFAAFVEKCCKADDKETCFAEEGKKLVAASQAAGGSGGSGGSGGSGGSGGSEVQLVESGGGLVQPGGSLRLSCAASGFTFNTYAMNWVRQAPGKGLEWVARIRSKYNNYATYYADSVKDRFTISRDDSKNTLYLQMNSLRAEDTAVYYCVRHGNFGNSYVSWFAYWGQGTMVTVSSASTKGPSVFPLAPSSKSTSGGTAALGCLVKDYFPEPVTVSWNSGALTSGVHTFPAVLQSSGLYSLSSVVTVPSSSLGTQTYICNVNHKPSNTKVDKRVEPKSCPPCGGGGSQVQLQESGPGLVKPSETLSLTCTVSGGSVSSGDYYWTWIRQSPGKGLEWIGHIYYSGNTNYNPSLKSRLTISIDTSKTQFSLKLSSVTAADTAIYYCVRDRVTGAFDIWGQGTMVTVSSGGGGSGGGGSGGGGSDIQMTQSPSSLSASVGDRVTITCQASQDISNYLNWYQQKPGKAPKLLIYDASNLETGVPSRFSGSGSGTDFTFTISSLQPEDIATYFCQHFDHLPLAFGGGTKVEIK
light: B1 light with P34G, L35G, G36S, L37G, A38G, G39S
notes: Not cleaved by MMP9, so the same molecule stands in the assays with and without MMP9; also called ProTriBody-NC (VHVL); Pro-Tribody-NC (VHVL)
binds: [1] | [2]

B3: Construct 1: Tri-Specific variable light chain-variable heavy chain (VLVH), anti-CD3epsilon Fab with two anti-EGFR scFv (VL-VH), no regulatory domains (bispecific antibody)
heavy: GGSGGSEVQLVESGGGLVQPGGSLRLSCAASGFTFNTYAMNWVRQAPGKGLEWVARIRSKYNNYATYYADSVKDRFTISRDDSKNTLYLQMNSLRAEDTAVYYCVRHGNFGNSYVSWFAYWGQGTMVTVSSASTKGPSVFPLAPSSKSTSGGTAALGCLVKDYFPEPVTVSWNSGALTSGVHTFPAVLQSSGLYSLSSVVTVPSSSLGTQTYICNVNHKPSNTKVDKRVEPKSCPPCGGGGSDIQMTQSPSSLSASVGDRVTITCQASQDISNYLNWYQQKPGKAPKLLIYDASNLETGVPSRFSGSGSGTDFTFTISSLQPEDIATYFCQHFDHLPLAFGGGTKVEIKGGGGSGGGGSGGGGSQVQLQESGPGLVKPSETLSLTCTVSGGSVSSGDYYWTWIRQSPGKGLEWIGHIYYSGNTNYNPSLKSRLTISIDTSKTQFSLKLSSVTAADTAIYYCVRDRVTGAFDIWGQGTMVTVSS
light: GGSGGSQAVVTQEPSLTVSPGGTVTLTCRSSTGAVTTSNYANWVQQKPGQAPRGLIGGTNKRAPGTPARFSGSLLGGKAALTLSGVQPEDEAEYYCALWYSNLWVFGGGTKLTVLGQPKAAPSVTLFPPSSEELQANKATLVCLISDFYPGAVTVAWKADSSPVKAGVETTTPSKQSNNKYAASSYLSLTPEQWKSHRSYSCQVTHEGSTVEKTVAPTECPPCSGGGSDIQMTQSPSSLSASVGDRVTITCQASQDISNYLNWYQQKPGKAPKLLIYDASNLETGVPSRFSGSGSGTDFTFTISSLQPEDIATYFCQHFDHLPLAFGGGTKVEIKGGGGSGGGGSGGGGSQVQLQESGPGLVKPSETLSLTCTVSGGSVSSGDYYWTWIRQSPGKGLEWIGHIYYSGNTNYNPSLKSRLTISIDTSKTQFSLKLSSVTAADTAIYYCVRDRVTGAFDIWGQGTMVTVSS
notes: Heterodimer of one HC and one LC polypeptide (about 100 kDa), no Fc; also called TriBody (VLVH); Tribody EGFR (VL-VH)
not listed: [5]
binds: all other assays above

B4: Construct 2: Tri-Specific variable heavy chain-variable light chain (VHVL), anti-CD3epsilon Fab with two anti-EGFR scFv (VH-VL), no regulatory domains (bispecific antibody)
heavy: GGSGGSEVQLVESGGGLVQPGGSLRLSCAASGFTFNTYAMNWVRQAPGKGLEWVARIRSKYNNYATYYADSVKDRFTISRDDSKNTLYLQMNSLRAEDTAVYYCVRHGNFGNSYVSWFAYWGQGTMVTVSSASTKGPSVFPLAPSSKSTSGGTAALGCLVKDYFPEPVTVSWNSGALTSGVHTFPAVLQSSGLYSLSSVVTVPSSSLGTQTYICNVNHKPSNTKVDKRVEPKSCPPCGGGGSQVQLQESGPGLVKPSETLSLTCTVSGGSVSSGDYYWTWIRQSPGKGLEWIGHIYYSGNTNYNPSLKSRLTISIDTSKTQFSLKLSSVTAADTAIYYCVRDRVTGAFDIWGQGTMVTVSSGGGGSGGGGSGGGGSDIQMTQSPSSLSASVGDRVTITCQASQDISNYLNWYQQKPGKAPKLLIYDASNLETGVPSRFSGSGSGTDFTFTISSLQPEDIATYFCQHFDHLPLAFGGGTKVEIK
light: GGSGGSQAVVTQEPSLTVSPGGTVTLTCRSSTGAVTTSNYANWVQQKPGQAPRGLIGGTNKRAPGTPARFSGSLLGGKAALTLSGVQPEDEAEYYCALWYSNLWVFGGGTKLTVLGQPKAAPSVTLFPPSSEELQANKATLVCLISDFYPGAVTVAWKADSSPVKAGVETTTPSKQSNNKYAASSYLSLTPEQWKSHRSYSCQVTHEGSTVEKTVAPTECPPCSGGGSQVQLQESGPGLVKPSETLSLTCTVSGGSVSSGDYYWTWIRQSPGKGLEWIGHIYYSGNTNYNPSLKSRLTISIDTSKTQFSLKLSSVTAADTAIYYCVRDRVTGAFDIWGQGTMVTVSSGGGGSGGGGSGGGGSDIQMTQSPSSLSASVGDRVTITCQASQDISNYLNWYQQKPGKAPKLLIYDASNLETGVPSRFSGSGSGTDFTFTISSLQPEDIATYFCQHFDHLPLAFGGGTKVEIK
notes: Heterodimer of one HC and one LC polypeptide, no Fc; also called TriBody (VHVL); Tribody (VHVL)
binds: all assays above

B5: Construct 3: Precursor Tri-Specific Variable Light-Variable Heavy (VLVH), anti-CD3epsilon Fab, two anti-EGFR scFv, HSA and CAP regulatory domains linked by … (bispecific antibody)
heavy: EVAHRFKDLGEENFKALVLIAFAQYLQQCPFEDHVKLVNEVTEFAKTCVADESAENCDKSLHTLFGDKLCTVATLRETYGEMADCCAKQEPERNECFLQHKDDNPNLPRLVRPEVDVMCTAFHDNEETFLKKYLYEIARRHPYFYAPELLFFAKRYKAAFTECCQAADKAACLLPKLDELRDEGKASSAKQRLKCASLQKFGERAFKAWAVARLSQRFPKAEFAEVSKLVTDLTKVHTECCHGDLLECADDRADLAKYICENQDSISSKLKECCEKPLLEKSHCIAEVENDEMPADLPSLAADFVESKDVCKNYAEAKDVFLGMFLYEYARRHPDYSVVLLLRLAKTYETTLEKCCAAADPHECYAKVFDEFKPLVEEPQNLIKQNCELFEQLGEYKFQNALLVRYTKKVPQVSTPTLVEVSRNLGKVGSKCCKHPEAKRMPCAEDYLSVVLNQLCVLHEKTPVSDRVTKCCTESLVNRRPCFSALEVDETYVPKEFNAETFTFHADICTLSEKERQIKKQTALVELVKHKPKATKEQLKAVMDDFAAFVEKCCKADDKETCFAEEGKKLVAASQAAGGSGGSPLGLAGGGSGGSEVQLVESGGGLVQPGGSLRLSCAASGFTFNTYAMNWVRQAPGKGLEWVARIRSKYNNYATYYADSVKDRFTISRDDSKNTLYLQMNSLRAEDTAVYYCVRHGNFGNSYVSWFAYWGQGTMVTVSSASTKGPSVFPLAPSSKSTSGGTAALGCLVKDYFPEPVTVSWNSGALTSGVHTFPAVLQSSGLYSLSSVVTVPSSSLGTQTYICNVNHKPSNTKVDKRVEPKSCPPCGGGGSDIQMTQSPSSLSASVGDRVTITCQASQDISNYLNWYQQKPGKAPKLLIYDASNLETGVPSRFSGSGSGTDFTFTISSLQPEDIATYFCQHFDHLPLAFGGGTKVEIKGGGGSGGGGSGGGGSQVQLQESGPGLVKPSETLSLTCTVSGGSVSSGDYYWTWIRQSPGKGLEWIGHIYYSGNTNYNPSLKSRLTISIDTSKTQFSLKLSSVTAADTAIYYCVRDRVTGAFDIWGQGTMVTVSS
light: QDGNEEMGGITQTPYKVSISGTTVILTGGSGGSPLGLAGGGSGGSQAVVTQEPSLTVSPGGTVTLTCRSSTGAVTTSNYANWVQQKPGQAPRGLIGGTNKRAPGTPARFSGSLLGGKAALTLSGVQPEDEAEYYCALWYSNLWVFGGGTKLTVLGQPKAAPSVTLFPPSSEELQANKATLVCLISDFYPGAVTVAWKADSSPVKAGVETTTPSKQSNNKYAASSYLSLTPEQWKSHRSYSCQVTHEGSTVEKTVAPTECPPCSGGGSDIQMTQSPSSLSASVGDRVTITCQASQDISNYLNWYQQKPGKAPKLLIYDASNLETGVPSRFSGSGSGTDFTFTISSLQPEDIATYFCQHFDHLPLAFGGGTKVEIKGGGGSGGGGSGGGGSQVQLQESGPGLVKPSETLSLTCTVSGGSVSSGDYYWTWIRQSPGKGLEWIGHIYYSGNTNYNPSLKSRLTISIDTSKTQFSLKLSSVTAADTAIYYCVRDRVTGAFDIWGQGTMVTVSS
notes: Uncleaved precursor, about 170 kDa; also called ProTriBody-C EGFR (VL-VH); Precursor Tri-body construct (VL-VH)
not listed: [5]
binds: all other assays above

B6: Construct 5: Precursor Tri-Specific Non-Cleavable (NC) Variable Light Variable Heavy (VLVH), anti-CD3epsilon Fab, two anti-EGFR scFv, HSA and CAP regulatory … (bispecific antibody)
heavy: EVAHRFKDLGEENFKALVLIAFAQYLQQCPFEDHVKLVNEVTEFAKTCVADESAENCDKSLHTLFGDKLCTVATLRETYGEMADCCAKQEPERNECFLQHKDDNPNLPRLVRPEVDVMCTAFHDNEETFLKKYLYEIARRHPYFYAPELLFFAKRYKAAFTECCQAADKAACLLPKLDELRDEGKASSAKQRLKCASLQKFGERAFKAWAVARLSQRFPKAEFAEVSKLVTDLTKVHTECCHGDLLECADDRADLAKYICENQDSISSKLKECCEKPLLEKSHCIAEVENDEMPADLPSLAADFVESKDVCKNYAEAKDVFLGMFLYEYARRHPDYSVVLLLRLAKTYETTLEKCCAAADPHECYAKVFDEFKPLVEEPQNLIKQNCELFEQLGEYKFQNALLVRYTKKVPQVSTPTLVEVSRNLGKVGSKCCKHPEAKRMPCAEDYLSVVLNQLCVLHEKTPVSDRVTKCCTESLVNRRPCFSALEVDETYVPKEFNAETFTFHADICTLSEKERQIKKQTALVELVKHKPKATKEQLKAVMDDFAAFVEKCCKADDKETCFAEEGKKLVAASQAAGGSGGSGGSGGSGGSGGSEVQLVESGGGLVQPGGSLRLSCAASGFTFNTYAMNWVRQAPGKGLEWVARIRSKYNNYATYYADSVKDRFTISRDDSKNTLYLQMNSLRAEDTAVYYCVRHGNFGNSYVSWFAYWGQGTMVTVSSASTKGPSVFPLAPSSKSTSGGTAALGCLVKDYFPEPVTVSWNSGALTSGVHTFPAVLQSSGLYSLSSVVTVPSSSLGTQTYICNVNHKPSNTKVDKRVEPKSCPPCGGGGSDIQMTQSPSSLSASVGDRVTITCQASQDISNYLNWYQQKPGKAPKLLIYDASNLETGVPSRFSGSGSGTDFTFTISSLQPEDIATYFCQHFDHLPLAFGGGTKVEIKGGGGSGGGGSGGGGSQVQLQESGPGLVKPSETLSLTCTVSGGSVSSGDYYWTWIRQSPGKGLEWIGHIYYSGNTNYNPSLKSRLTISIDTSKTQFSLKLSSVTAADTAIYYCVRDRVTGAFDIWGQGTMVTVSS
light: B5 light with P34G, L35G, G36S, L37G, A38G, G39S
notes: also called ProTriBody-NC EGFR (VL-VH); Non-Cleavable Precursor Tri-body construct (VL-VH)
not listed: [5]
binds: all other assays above
